One assay has as its system PC3/hErbB2 cells. The assay can be described thus: Cell viability (cell kill) assay. As to conditions: PC3/ErbB2; Table 15. The class given is cell-based, human. The text has this: (§1) PRLR-overexpressing cells, including HEK293, PC3, MCF7 and NCI-N87, were generated to assess the ability of anti-PRLR conjugated antibodies to reduce cell viability. For comparative purposes, PC3 and T47D cells with overexpressed ErbB2 were also generated, as well as an MCF7 cell line over-expressing both hPRLR and hErbB2. Briefly, Lipofectamine® 2000-mediated transfection methodology was utilized to generate HEK293 cells expressing human PRLR (HEK293/hPRLR) or human ErbB2 (HEK293/hErbB2). Lipofectamine LTX with Plus Reagent was used to generate PC3 cells expressing human PRLR (PC3/hPRLR) or human ErbB2 (PC3/hErbB2). Lentiviral-mediated transduction was utilized to generate MCF7 cells expressing human PRLR (MCF7/hPRLR), NCI-N87 cells expressing human PRLR (NCI-N87/hPRLR), T47D cells over-expressing human ErbB2 (T47D/hErbB2), and MCF7 cells expressing both human PRLR and human ErbB2 (MCF7/hPRLR/hErbB2). All lines were selected for at least two weeks in complete growth media plus appropriate selection reagents. Stably expressing populations were enriched for PRLR expression via FACS using the anti PRLR antibody Control I.
(§2) Next, the ability of anti-PRLR-DM1 antibody-drug conjugates (i.e., anti-PRLR antibodies conjugated to DM1 via a non-cleavable linker [SMCC]) to reduce cell viability was determined using in vitro cell based assays. Cells were seeded in PDL-coated 96 well plates at 1500 to 10000 cells per well in complete growth media and allowed to grow overnight. For cell viability curves, ADCs or free DM1 (as the methyl disulfide derivative DM1-SMe) were added to the cells at final concentrations ranging from 500 nM to 5 pM and incubated for 3 days. The 293, PC3 and T47D cells were incubated with CCK8 (Dojindo, Rockville, Md.) for the final 1-3 hours and the absorbance at 450 nm (OD450) was determined on a Flexstation3 (Molecular Devices, Sunnyvale, Calif.). MCF7 cells were treated with Hoechst 33342 nuclear stain while being fixed with 4% formaldehyde. Images were acquired on the ImageXpress micro XL (Molecular Devices, Sunnyvale, Calif.) and nuclear counts were determined via Columbus image analysis software (Perkin Elmer, Shelton, Conn.). Background OD450 values (PC3, 293, and T47D) or nuclear counts (MCF7) from digitonin (40 nM) treated cells was subtracted from all wells and viability was expressed as a percentage of the untreated controls. IC50 values were determined from a four-parameter logistic equation over a 10-point response curve (GraphPad Prism).
(§3) The potency of anti-PRLR conjugated antibodies compared with a similarly conjugated antibody to the co-expressed ErbB2 cell surface target was also assessed. Both PRLR and ErbB2 are expressed in a majority of breast cancers, and anti-ErbB2 antibodies conjugated to DM1 have shown clinical efficacy in targeting ErbB2 (+) breast cancer (Hurvitz et al; 2013).

Another assay relates to MCF7/hPRLR/hErbB2 cells. The assay can be described thus: Cell viability (cell kill) assay. The class given is cell-based, human. As to conditions: MCF/PRLR + ErbB2; Table 17.
Description: as §1, §2, §3

The next assay has as its system T47D/hErbB2 cells. The assay can be described thus: Cell viability (cell kill) assay. As to conditions: T47D/ErbB2; Table 16. The class given is cell-based, human.
Description: as §1, §2, §3

Another assay concerns NCI-N87/hPRLR cells. The assay is described as follows: Cell viability (cell kill) assay. As to conditions: NCI-N87/PRLR; Table 17. The class given is cell-based, human.
Description: as §1, §2, §3

Assay [1] deals with MCF7/hPRLR (MCF7/PRLR) cells. The assay can be described thus: Cell viability (cell kill) assay, nuclear counts. The class given is cell-based, human. The method in brief: (§4)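 Anti-PRLR ADCs or free DM1-SMe were added at 500 nM to 5 pM final to cells seeded overnight and were incubated 3 days. MCF7 lines were fixed with 4% formaldehyde plus Hoechst 33342, and nuclei were counted by imaging, with digitonin […] background subtracted. Viability was expressed as % of untreated cells, and IC50 was obtained from a 4-parameter fit of a 10-point curve.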

The next assay relates to MCF7 (MCF7/ATCC) cells. The assay is described as follows: Cell viability (cell kill) assay, nuclear counts. The class given is cell-based. The method in brief: as §4
The next assay concerns T47D cells. The assay is described as follows: Cell viability (cell kill) assay. The class given is cell-based. The method in brief: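 T47D cells grown overnight, then exposed 3 days to anti-PRLR ADCs (DM1 via non-cleavable SMCC linker, or other maytansinoid toxins) or free DM1-SMe, 500 nM to 5 pM. Viability by CCK8 OD450, digitonin background subtracted, as % of untreated; IC50 from 10-point four-parameter fit. PRL (15 nM) co-incubation tested separately.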

The test system of the next assay is PC3 cells. The assay is described as follows: Cell viability (cell kill) assay. The class given is cell-based. The procedure, abridged:
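PC3 and PC3/hPRLR (lipofection-generated, FACS-enriched for PRLR) cells exposed 3 days to anti-PRLR ADCs or free DM1-SMe, 500 nM to 5 pM. Viability by CCK8 OD450, digitonin background subtracted, as % of untreated; IC50 from four-parameter fit of 10-point curves.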

The mark [2] stands for this setting: T47D, Table 12, 3 days, read-out: IC50.

The source of these data is US9688764B2, “Methods of treating breast cancer by administering anti-human prolactin receptor (PRLR) antibodies” (REGENERON PHARMACEUTICALS, INC., priority 2013, dated 2017).

Read-outs that look alike come from different tables or passages of the source.

One may read the IC50 as the concentration at which inhibition is half-maximal.

B1: H1H6953N-DM1 (conjugate)
VH: EVQLLESGGGLVQPGGTLRLSCAASGFTFSAYAMSWVRQAPGKGLEWVSSINVRAGDTYYADSVKGRFTISRDNSKNTLFLLMNSLRAEDTAAYYCAKARYSSNWGFDFWGQGTLVTVSS
VL: DIVMTQSPDSLTVSLGARTTINCQSSQTILHSSNNHNYLAWYQQKPGLPPKLLIYWSSTRESGVPDRFSGSGSGTDFTLTISSLQAEDVAIYYCQQYSNTPYTFGQGTKLEIN
Take B1: the half-inhibitory concentration (IC50) with PC3/hErbB2 cells came out at 80 nM; with MCF7/hPRLR/hErbB2 cells, 0.33 nM; with T47D/hErbB2 cells, 2.4 nM; with NCI-N87/hPRLR cells, 2.9 nM; in assay [1] (Table 12, 3 days), 0.29 nM; in assay [1] (Table 17), 0.33 nM. Besides, the 50% inhibitory concentration (IC50) in the assay on MCF7 (MCF7/ATCC) cells (MCF7, Table 12, 3 days) is 100 nM; in the assay with MCF7 (MCF7/ATCC) cells (MCF7, Table 16) it was 82 nM; with T47D cells (T47D cells (PRLR 12× above background), 3 days, read-out: IC50, cell viability), 1.3 nM; with T47D cells (setting [2]) it was 1.64 nM; in the assay with PC3 cells (Table 15), 100 nM. Further, the “% Kill” value in the assay with T47D/hErbB2 cells is 80%; in assay [1] (Table 12, 3 days), 76%; in assay [1] (Table 17) it was 76%; in the assay on MCF7 (MCF7/ATCC) cells (MCF7, Table 12, 3 days) it was 55%; with T47D cells (T47D, Table 12, 3 days), 79%; in the assay with PC3 cells (Table 15), 80%.

B2: H1H6958N2-DM1: anti-PRLR antibody H1H6958N2 conjugated to DM1 through an SMCC linker (conjugate)
VH: QVQLVESGGGVVQPGRSLRLSCGASGFTFRNYGMQWVRQGPGKGLEWVTLISFDGNDKYYADSVKGRFTISRDNSKNTLFLQMNSLRTEDTAVYYCARGGDFDYWGQGTLVTVSS
VL: DIQMTQSPSSLSASVGDRVTITCRASQDIRKDLGWYQQKPGKAPKRLIYAASSLHSGVPSRFSGSGSGTEFTLTISSLQPEDFATYYCLQHNSYPMYTFGQGTKLEIK
In the case of B2, the “% Kill” value is listed as 77% in assay [1] (Table 12, 3 days); 83% in assay [1] (Table 18); 80% in assay [1] (Table 20); 72% in the assay with MCF7 (MCF7/ATCC) cells (MCF7/ATCC, Table 18); 70% in the assay on MCF7 (MCF7/ATCC) cells (MCF7/ATCC, Table 20); 77% with MCF7 (MCF7/ATCC) cells (MCF7, Table 12, 3 days). Moreover, the “% Kill” value turned out to be 71% with T47D cells (T47D, Table 12, 3 days); 100% in the assay with T47D cells (T47D, Table 13, + 15 nM PRL); 100% in the assay on T47D cells (T47D, Table 13, without PRL); 100% with T47D cells (T47D, Table 19); 83% in the assay on PC3 cells (Table 11, 3 days). The IC50 was found to be 0.19 nM in assay [1] (Table 12, 3 days); 0.2 nM in assay [1] (Table 18); 0.2 nM in assay [1] (Table 20); 90 nM in the assay with MCF7 (MCF7/ATCC) cells (MCF7/ATCC, Table 18); 70 nM in the assay on MCF7 (MCF7/ATCC) cells (MCF7/ATCC, Table 20); 100 nM in the assay on MCF7 (MCF7/ATCC) cells (MCF7, Table 12, 3 days). Further, the IC50 was 1.34 nM in the assay on T47D cells (setting [2]); 3 nM in the assay with T47D cells (T47D, Table 13, + 15 nM PRL, read-out: IC50); 1 nM in the assay on T47D cells (T47D, Table 13, without PRL, read-out: IC50); 2 nM with T47D cells (T47D, Table 19, read-out: IC50); 150 nM in the assay with PC3 cells (Table 11, 3 days).
